Where two headings read alike, the source gives them in different places.
What was measured:
Assay in all cases: Kinase selectivity panel
Assay type in all cases: biochemical
[1] = molecular target: MAPK2/ERK2 (Homo sapiens, UniProt P28482); settings: inhibitor 1 μM; ATP 50 μM; read-out: residual activity (%) MAPK2/ERK2
Experimental: (§1) The panel of kinases included all 52 kinases available for testing. To the best of our knowledge, the selectivity profiling has not been carried out with a wide panel of PK before for bisubstrate-type inhibitors.
(§2) The assay of protein kinases was performed at 30° C. as described previously [Davies et al., Biochem. J. 351 (2000) 95; Murray et al., Biochem. J. 384 (2004) 477]. The results of the testing are expressed as the % of residual activity of the kinase in the presence of the inhibitor at 1 micromolar concentration.

[2] = molecular target: SAPK2a/p38 (Homo sapiens, UniProt Q16539); settings: inhibitor 1 μM; ATP 50 μM; read-out: residual activity (%) SAPK2a/p38
Experimental: as §1, §2

[3] = molecular target: SAPK2b/p38β2 (Homo sapiens, UniProt Q15759); settings: inhibitor 1 μM; ATP 20 μM; read-out: residual activity (%) SAPK2b/p38β2
Experimental: as §1, §2

[4] = molecular target: JNK/SAPK1c (Homo sapiens, UniProt P45983); settings: inhibitor 1 μM; ATP 20 μM; read-out: residual activity (%) JNK/SAPK1c
Experimental: as §1, §2

[5] = molecular target: T1, SAPK4/p38d (Homo sapiens, UniProt O15264); settings: inhibitor 1 μM; ATP 5 μM; read-out: residual activity (%) SAPK4/p38d
T1 sequence (O15264 1-365): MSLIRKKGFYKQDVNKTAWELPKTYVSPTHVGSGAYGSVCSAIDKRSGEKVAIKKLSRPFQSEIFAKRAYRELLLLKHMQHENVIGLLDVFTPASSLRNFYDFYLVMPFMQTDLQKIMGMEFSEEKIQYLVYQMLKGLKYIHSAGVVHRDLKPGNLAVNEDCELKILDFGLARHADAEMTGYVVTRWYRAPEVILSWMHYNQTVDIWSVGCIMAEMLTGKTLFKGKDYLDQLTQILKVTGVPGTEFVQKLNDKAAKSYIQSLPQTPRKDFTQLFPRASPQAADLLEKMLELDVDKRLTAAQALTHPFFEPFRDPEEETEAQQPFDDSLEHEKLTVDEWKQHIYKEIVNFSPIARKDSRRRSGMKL
Experimental: as §1, §2

[6] = molecular target: CDK2/cyclin A (Homo sapiens, UniProt P24941); settings: inhibitor 1 μM; ATP 20 μM; read-out: residual activity (%) CDK2/cyclin A
Experimental: as §1, §2

[7] = molecular target: T2, SAPK3/p38g (Homo sapiens, UniProt P53778); settings: inhibitor 1 μM; ATP 5 μM; read-out: residual activity (%) SAPK3/p38g
T2 sequence (P53778 1-367): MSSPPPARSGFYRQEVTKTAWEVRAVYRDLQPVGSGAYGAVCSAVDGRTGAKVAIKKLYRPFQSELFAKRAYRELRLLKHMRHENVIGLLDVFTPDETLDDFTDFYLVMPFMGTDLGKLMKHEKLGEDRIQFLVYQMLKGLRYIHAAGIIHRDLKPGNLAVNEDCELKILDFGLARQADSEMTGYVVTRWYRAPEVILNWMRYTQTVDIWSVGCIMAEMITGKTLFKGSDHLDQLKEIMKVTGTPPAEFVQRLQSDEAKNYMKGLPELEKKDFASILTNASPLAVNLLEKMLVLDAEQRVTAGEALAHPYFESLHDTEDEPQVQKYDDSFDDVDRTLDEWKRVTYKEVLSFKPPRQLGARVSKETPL
Experimental: as §1, §2

[8] = molecular target: T3, PDK1 (Homo sapiens, UniProt O15530); settings: read-out: residual activity (%) PDK1
T3 sequence (O15530 1-556): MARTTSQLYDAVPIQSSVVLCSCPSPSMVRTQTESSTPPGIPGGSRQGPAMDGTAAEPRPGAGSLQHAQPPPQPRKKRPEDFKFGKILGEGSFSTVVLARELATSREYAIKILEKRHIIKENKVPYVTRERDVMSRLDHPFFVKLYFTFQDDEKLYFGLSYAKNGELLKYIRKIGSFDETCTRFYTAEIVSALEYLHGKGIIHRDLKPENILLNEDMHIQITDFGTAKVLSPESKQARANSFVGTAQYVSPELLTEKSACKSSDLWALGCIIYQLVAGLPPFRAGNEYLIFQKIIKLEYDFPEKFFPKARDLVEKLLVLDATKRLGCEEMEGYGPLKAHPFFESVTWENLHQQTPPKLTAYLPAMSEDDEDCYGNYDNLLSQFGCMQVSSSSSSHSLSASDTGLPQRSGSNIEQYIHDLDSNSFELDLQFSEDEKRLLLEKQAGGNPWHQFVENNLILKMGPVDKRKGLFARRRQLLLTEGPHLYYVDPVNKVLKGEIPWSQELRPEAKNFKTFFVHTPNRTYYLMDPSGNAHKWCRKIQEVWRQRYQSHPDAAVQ
Experimental: (§3) The panel of kinases included all 52 kinases available for testing.
(§4) The assay of protein kinases was performed at 30° C. as described previously [Davies et al., Biochem. J. 351 (2000) 95; Murray et al., Biochem. J. 384 (2004) 477].

[9] = molecular target: MNK1 (Homo sapiens, UniProt Q9BUB5); settings: read-out: residual activity (%) MNK1
Experimental: as §3, §4

[10] = molecular target: PKCa (Homo sapiens, UniProt P17252); settings: read-out: residual activity (%) PKCa
Experimental: as §3, §4

[11] = molecular target: MAPKAP-K3 (Homo sapiens, UniProt Q16644); settings: read-out: residual activity (%) MAPKAP-K3
Experimental: as §3, §4

MAPKAP-K3, sequence (Q16644 whole entry, species assumed): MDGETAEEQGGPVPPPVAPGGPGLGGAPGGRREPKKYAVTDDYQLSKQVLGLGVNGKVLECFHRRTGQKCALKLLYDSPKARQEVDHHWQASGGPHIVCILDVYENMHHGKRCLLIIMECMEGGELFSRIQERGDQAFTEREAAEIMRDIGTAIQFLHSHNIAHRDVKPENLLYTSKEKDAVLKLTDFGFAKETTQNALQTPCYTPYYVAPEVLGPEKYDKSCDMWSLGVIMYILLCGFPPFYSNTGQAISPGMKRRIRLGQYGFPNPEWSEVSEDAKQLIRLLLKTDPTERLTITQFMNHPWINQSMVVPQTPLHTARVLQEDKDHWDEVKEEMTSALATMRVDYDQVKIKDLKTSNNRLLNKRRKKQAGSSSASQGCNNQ
MAPK2/ERK2, sequence (P28482 whole entry): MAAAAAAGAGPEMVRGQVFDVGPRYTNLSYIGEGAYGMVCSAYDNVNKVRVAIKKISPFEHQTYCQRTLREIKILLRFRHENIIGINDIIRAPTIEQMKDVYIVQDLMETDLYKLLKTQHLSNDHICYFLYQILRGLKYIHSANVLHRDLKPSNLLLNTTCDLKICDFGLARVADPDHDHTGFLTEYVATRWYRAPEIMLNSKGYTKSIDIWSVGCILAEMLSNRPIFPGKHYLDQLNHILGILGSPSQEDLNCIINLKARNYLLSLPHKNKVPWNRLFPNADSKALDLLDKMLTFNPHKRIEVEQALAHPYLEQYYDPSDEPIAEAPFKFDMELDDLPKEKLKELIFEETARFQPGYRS
JNK/SAPK1c, sequence (P45983 whole entry): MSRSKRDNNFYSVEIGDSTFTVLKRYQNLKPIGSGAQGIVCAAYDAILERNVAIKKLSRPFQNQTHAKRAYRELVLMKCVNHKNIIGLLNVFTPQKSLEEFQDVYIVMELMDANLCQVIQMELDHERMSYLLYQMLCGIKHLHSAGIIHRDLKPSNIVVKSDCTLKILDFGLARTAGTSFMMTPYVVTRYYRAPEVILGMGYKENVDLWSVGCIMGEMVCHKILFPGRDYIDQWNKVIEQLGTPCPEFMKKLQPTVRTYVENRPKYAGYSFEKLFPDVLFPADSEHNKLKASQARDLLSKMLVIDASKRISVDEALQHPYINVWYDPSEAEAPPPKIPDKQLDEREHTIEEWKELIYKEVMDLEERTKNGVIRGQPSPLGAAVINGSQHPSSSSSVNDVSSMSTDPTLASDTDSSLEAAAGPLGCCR
MNK1, sequence (Q9BUB5 whole entry, species assumed): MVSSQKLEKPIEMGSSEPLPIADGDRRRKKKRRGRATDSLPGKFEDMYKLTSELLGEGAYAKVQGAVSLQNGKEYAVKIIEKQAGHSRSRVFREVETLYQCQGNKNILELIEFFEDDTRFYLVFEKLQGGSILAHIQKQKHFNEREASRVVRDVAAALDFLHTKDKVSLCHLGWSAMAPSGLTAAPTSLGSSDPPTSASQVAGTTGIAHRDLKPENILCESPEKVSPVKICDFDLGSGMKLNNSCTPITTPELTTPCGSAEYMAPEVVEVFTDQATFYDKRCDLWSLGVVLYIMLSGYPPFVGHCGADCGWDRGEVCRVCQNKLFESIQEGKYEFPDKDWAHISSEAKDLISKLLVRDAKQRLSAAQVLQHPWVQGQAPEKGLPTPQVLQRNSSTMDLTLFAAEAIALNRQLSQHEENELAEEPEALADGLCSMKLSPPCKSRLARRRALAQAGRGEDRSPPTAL
SAPK2b/p38β2, sequence (Q15759 whole entry): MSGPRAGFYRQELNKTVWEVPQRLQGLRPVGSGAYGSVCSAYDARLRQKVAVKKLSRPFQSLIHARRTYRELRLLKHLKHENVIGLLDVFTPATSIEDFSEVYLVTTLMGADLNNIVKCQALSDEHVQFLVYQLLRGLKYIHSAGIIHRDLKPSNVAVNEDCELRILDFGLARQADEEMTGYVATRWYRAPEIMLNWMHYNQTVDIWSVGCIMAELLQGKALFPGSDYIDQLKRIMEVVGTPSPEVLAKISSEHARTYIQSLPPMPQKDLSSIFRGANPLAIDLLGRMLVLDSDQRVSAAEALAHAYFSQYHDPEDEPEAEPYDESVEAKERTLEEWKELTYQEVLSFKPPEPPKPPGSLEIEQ
SAPK2a/p38, sequence (Q16539 whole entry): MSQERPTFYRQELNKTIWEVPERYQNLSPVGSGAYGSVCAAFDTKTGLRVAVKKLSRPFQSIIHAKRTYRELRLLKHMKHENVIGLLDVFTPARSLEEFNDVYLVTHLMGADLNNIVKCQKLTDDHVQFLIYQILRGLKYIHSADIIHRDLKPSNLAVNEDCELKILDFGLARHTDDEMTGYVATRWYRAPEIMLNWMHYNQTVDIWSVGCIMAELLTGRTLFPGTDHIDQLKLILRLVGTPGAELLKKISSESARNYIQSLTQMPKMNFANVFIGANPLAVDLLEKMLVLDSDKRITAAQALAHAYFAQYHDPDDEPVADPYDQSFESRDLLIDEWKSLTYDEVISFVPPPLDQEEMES

SMILES | remaining activity at 1 µM [1] | remaining activity at 1 µM [2] | remaining activity at 1 µM [3] | remaining activity at 1 µM [4] | remaining activity at 1 µM [5] | remaining activity at 1 µM [6] | remaining activity at 1 µM [7] | remaining activity at 1 µM [8] | remaining activity at 1 µM [9] | remaining activity at 1 µM [10] | remaining activity at 1 µM [11] | remaining activity at 1 µM ([8]; inhibitor 1 μM, ATP 20 μM) | remaining activity at 1 µM ([9]; inhibitor 1 μM, ATP 50 μM) | remaining activity at 1 µM ([10]; inhibitor 1 μM, ATP 20 μM) | remaining activity at 1 µM ([11]; inhibitor 1 μM, ATP 20 μM)
N=C(N)NCCC[C@@H](NC(=O)[C@@H](CCCNC(=N)N)NC(=O)[C@@H](CCCNC(=N)N)NC(=O)[C@@H](CCCNC(=N)N)NC(=O)[C@@H](CCCNC(=N)N)NC(=O)[C@@H](CCCNC(=N)N)NC(=O)CCCCCNC(=O)[C@H]1O[C@@H](n2cnc3c(N)ncnc32)[C@H](O)[C@@H]1O)C(N)=O [Compound 5, AdcAhx(D-Arg)6-NH2] | 100% | 79% | 85% | 70% | 107% | 88% | 111% | 62% | 102% | 31% | 67% | – | – | – | –
N=C(N)NCCC[C@@H](NC(=O)[C@@H](CCCNC(=N)N)NC(=O)[C@@H](CCCNC(=N)N)NC(=O)[C@@H](CCCNC(=N)N)NC(=O)[C@@H](CCCNC(=N)N)NC(=O)[C@@H](CCCNC(=N)N)NC(=O)CCCCCNCCNS(=O)(=O)c1cccc2cnccc12)C(N)=O [Compound 26, H9-Hex(D-Arg)6-NH2] | 95% | 76% | 80% | 75% | 93% | 73% | 99% | – | – | – | – | 56% | 68% | 15% | 69%

From US8158376B2, “Bisubstrate fluorescent probe binding to protein kinases” (University of Tartu, priority 2006, dated 2012)
